B1: HDAC6 (parent)
chain: KMKTRELHRESSNFDSIYICPSTF
B2: STK38L (parent)
chain: RQLAYSTVGTPDYIAPEVFMQTGY

Variants of: B1
Assay: protein stability index of a GFP-peptide fusion (GPS, HEK-293T) (PSI 1-6); higher = more stable
Settings: c terminus: a fixed tail appended
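Note: lentivirally expressed fusions sorted by FACS into six bins by GFP to DsRed ratio, PSI derived from sequencing read proportions per bin multiplied by bin number.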

Protein stability index: each site, then its substitutions
K3: F 2.1; E 2.94; Q 2.38; N 2.32; S 2.81; P 2.15; R 2.42; I 1.68; H 2.04; M 1.5; L 1.71; T 2.2; W 2.14; V 2.3; A 2.62; G 2.08; Y 2.06; C 2.43; D 2.59
T4: W 2.19; H 1.95; S 2.94; A 2.29; Y 2; Q 2.26; F 2.11; L 1.72; N 2.03; P 2.05; I 1.85; G 2.83; V 2.08; K 2.39; D 2.89; E 1.99; M 1.65; R 2.41; C 1.34
R5: C 1.91; A 1.98
M2: R 2.12; K 2.91; L 1.99; D 2.75; S 2.37; G 2.33; Q 3.52; P 2.96; Y 2.11; H 2.43; I 2.15; F 2.04; C 2.28; E 2.6; A 3.17; T 2.59; V 1.66; N 2.37; W 2.21
K1: T 2.14; R 1.38; G 2.29; N 2.12; H 1.9; C 1.7; Q 2.23; L 1.83; M 1.83; V 2.33; W 1.98; E 2.84; D 3.04; P 2.58; F 1.92; A 2.28; I 1.86; S 2.3; Y 1.59

Variants of: B2
Assay: as above
Settings: c terminus: a fixed tail appended

Protein stability index: each site, then its substitutions
Q21: N 2.26; E 3.22; A 2.88; W 1.82; R 2.62; K 2.66; Y 1.51; L 1.7; T 2.42; H 2.79; G 2.27; C 1.75; F 2.21; S 2.74; V 1.11; D 3.06; P 2.49; I 1.65
M20: S 3; N 2.87; W 1.95; Y 2.89; H 2.25; E 2.65; F 2.06; D 3.97; L 2.89; V 3.1; Q 4.34; G 2.53; K 2.76; I 2.14; T 2.85; R 2.43; P 3.25
T22: C 2.24; F 2.09; E 3.46; W 1.36; P 3.18; S 2.77; G 3.65; M 2.48; V 1.68; Y 2.47; Q 3.04; I 2.39; H 2.63; R 2.85; K 2.32; N 2.98; L 1.96; D 3.02; A 2.13
G23: C 1.6; E 2.5; P 2.35; H 2.16; K 2.59; I 1.99; T 2.06; V 1.81; L 2.28; D 2.83; A 2.34; S 2.5; W 1.6; M 1.63; Y 1.86; Q 2.28; N 2.57; F 1.52; R 2.83
Y24: H 3.26; T 3.42; W 2.33; R 3.06; P 3.25; E 4.54; L 2.44; K 3.38; N 3.35; M 2.67; I 2.63; G 3.43; A 3.35; D 4.18; F 2.19; Q 3.53

Source: the supplement of paper PMC10567573
